Experiment: First-order nonenzymatic deamidation of pentapeptides in Tris buffer
Type: physicochemical
Settings: 0.15 M Tris HCl; for First-Order Deamidation Halftimes of GlyXxxAsnYyyGly: pH 7.4, 37.0° C., Asn pentapeptides; for First-Order Deamidation Halftimes of GlyXxxGlnYyyGly: pH 7.4, 37.0 ° C., Gln pentapeptides, 52 values measured, rest derived from surface fitting
In short: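 Pentapeptides containing Asn or Gln in varied flanking sequences incubated at 37° C., pH 7.4, 0.15 M Tris buffer; first-order deamidation rates measured. Some Asn values estimated from remaining data; many Gln values derived from surface fitting rather than measured.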

Substance	First-Order Deamidation Halftimes of GlyXxxAsnYyyGly	First-Order Deamidation Halftimes of GlyXxxGlnYyyGly
GlyPheAsnThrGly (GFNTG; printed: GlyPheAsnThrGly)	39.0 days	
GlyPheAsnTrpGly (GFNWG; printed: GlyPheAsnTrpGly)	102 days	
GlyPheAsnTyrGly (GFNYG; printed: GlyPheAsnTyrGly)	75.1 days	
GlyPheAsnValGly (GFNVG; printed: GlyPheAsnValGly)	203 days	
GlyPheGlnAlaGly (GFQAG; printed: GlyPheGlnAlaGly)		6300 days
GlyPheGlnArgGly (GFQRG; printed: GlyPheGlnArgGly)		7200 days
GlyPheGlnAspGly (GFQDG; printed: GlyPheGlnAspGly)		8200 days
GlyPheGlnCysGly (GFQCG; printed: GlyPheGlnCysGly)		2000 days
GlyPheGlnGluGly (GFQEG; printed: GlyPheGlnGluGly)		8100 days
GlyPheGlnGlyGly (GFQGG; printed: GlyPheGlnGlyGly)		660 days
GlyPheGlnHisGly (GFQHG; printed: GlyPheGlnHisGly)		6200 days
GlyPheGlnIleGly (GFQIG; printed: GlyPheGlnIleGly)		6400 days
GlyPheGlnLeuGly (GFQLG; printed: GlyPheGlnLeuGly)		6400 days
GlyPheGlnLysGly (GFQKG; printed: GlyPheGlnLysGly)		6200 days
GlyPheGlnMetGly (GFQMG; printed: GlyPheGlnMetGly)		5100 days
GlyPheGlnPheGly (GFQFG; printed: GlyPheGlnPheGly)		8200 days
GlyPheGlnProGly (GFQPG; printed: GlyPheGlnProGly)		10000 days
GlyPheGlnSerGly (GFQSG; printed: GlyPheGlnSerGly)		5900 days
GlyPheGlnThrGly (GFQTG; printed: GlyPheGlnThrGly)		5300 days
GlyPheGlnTrpGly (GFQWG; printed: GlyPheGlnTrpGly)		16000 days
GlyPheGlnTyrGly (GFQYG; printed: GlyPheGlnTyrGly)		12000 days
GlyPheGlnValGly (GFQVG; printed: GlyPheGlnValGly)		7100 days
GlyProAsnAlaGly (GPNAG; printed: GlyProAsnAlaGly)	31.8 days	
GlyProAsnAmCysGly	43.7 days	
GlyProAsnArgGly (GPNRG; printed: GlyProAsnArgGly)	72.9 days	

Substance	First-Order Deamidation Halftimes of GlyXxxAsnYyyGly	First-Order Deamidation Halftimes of GlyXxxGlnYyyGly
GlyProAsnAspGly (GPNDG; printed: GlyProAsnAspGly)	48.6 days	
GlyProAsnCysGly (GPNCG; printed: GlyProAsnCysGly)	60.0 days	
GlyProAsnGluGly (GPNEG; printed: GlyProAsnGluGly)	92.0 days	
GlyProAsnGlyGly (GPNGG; printed: GlyProAsnGlyGly)	1.18 days	
GlyProAsnHisGly (GPNHG; printed: GlyProAsnHisGly)	12.8 days	
GlyProAsnIleGly (GPNIG; printed: GlyProAsnIleGly)	455 days	
GlyProAsnLeuGly (GPNLG; printed: GlyProAsnLeuGly)	181 days	
GlyProAsnLysGly (GPNKG; printed: GlyProAsnLysGly)	67.8 days	
GlyProAsnMetGly (GPNMG; printed: GlyProAsnMetGly)	78.4 days	
GlyProAsnPheGly (GPNFG; printed: GlyProAsnPheGly)	100 days	
GlyProAsnProGly (GPNPG; printed: GlyProAsnProGly)	6590 days	
GlyProAsnSerGly (GPNSG; printed: GlyProAsnSerGly)	18.9 days	
GlyProAsnThrGly (GPNTG; printed: GlyProAsnThrGly)	63.1 days	
GlyProAsnTrpGly (GPNWG; printed: GlyProAsnTrpGly)	122 days	
GlyProAsnTyrGly (GPNYG; printed: GlyProAsnTyrGly)	114 days	
GlyProAsnValGly (GPNVG; printed: GlyProAsnValGly)	364 days	
GlyProGlnAlaGly (GPQAG; printed: GlyProGlnAlaGly)		4700 days
GlyProGlnArgGly (GPQRG; printed: GlyProGlnArgGly)		6400 days
GlyProGlnAspGly (GPQDG; printed: GlyProGlnAspGly)		7200 days
GlyProGlnCysGly (GPQCG; printed: GlyProGlnCysGly)		1600 days
GlyProGlnGluGly (GPQEG; printed: GlyProGlnGluGly)		6800 days
GlyProGlnGlyGly (GPQGG; printed: GlyProGlnGlyGly)		630 days
GlyProGlnHisGly (GPQHG; printed: GlyProGlnHisGly)		5200 days
GlyProGlnIleGly (GPQIG; printed: GlyProGlnIleGly)		6000 days
GlyProGlnLeuGly (GPQLG; printed: GlyProGlnLeuGly)		5800 days

Substance	First-Order Deamidation Halftimes of GlyXxxAsnYyyGly	First-Order Deamidation Halftimes of GlyXxxGlnYyyGly
GlyProGlnLysGly (GPQKG; printed: GlyProGlnLysGly)		5500 days
GlyProGlnMetGly (GPQMG; printed: GlyProGlnMetGly)		4500 days
GlyProGlnPheGly (GPQFG; printed: GlyProGlnPheGly)		7300 days
GlyProGlnProGly (GPQPG; printed: GlyProGlnProGly)		8900 days
GlyProGlnSerGly (GPQSG; printed: GlyProGlnSerGly)		4600 days
GlyProGlnThrGly (GPQTG; printed: GlyProGlnThrGly)		4600 days
GlyProGlnTrpGly (GPQWG; printed: GlyProGlnTrpGly)		13000 days
GlyProGlnTyrGly (GPQYG; printed: GlyProGlnTyrGly)		10000 days
GlyProGlnValGly (GPQVG; printed: GlyProGlnValGly)		6200 days
GlySerAsnAlaGly (GSNAG; printed: GlySerAsnAlaGly)	24.1 days	
GlySerAsnAmCysGly	41.3 days	
GlySerAsnArgGly (GSNRG; printed: GlySerAsnArgGly)	59.7 days	
GlySerAsnAspGly (GSNDG; printed: GlySerAsnAspGly)	30.3 days	
GlySerAsnCysGly (GSNCG; printed: GlySerAsnCysGly)	60.2 days	
GlySerAsnGluGly (GSNEG; printed: GlySerAsnGluGly)	59.7 days	
GlySerAsnGlyGly (GSNGG; printed: GlySerAsnGlyGly)	0.96 days	
GlySerAsnHisGly (GSNHG; printed: GlySerAsnHisGly)	9.0 days	
GlySerAsnIleGly (GSNIG; printed: GlySerAsnIleGly)	285 days	
GlySerAsnLeuGly (GSNLG; printed: GlySerAsnLeuGly)	110 days	
GlySerAsnLysGly (GSNKG; printed: GlySerAsnLysGly)	55.5 days	
GlySerAsnMetGly (GSNMG; printed: GlySerAsnMetGly)	54.9 days	
GlySerAsnPheGly (GSNFG; printed: GlySerAsnPheGly)	52.2 days	
GlySerAsnProGly (GSNPG; printed: GlySerAsnProGly)	7060 days	
